{"source": "patent US20130217685", "about": "“COMPOUNDS FOR MODULATING RNA BINDING PROTEINS AND USES THEREFOR” (UNIVERSITY OF MASSACHUSETTS, published 2013)", "molecular_target": "T1, MEX-5 TZF domain (236-350) (Caenorhabditis elegans, UniProt Q9XUB2 Q9XUB2:236-350)", "T1 sequence": "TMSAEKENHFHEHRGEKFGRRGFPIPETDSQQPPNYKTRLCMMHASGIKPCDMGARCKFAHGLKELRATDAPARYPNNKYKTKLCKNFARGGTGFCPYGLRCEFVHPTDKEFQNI", "test": "EMSA; 120 nM protein, 2-3 nM RNA; compound dose response (compound E IC50 2.0 uM)", "details": "tags: N-terminal MBP (pMal-c, NEB); ORFeome clone, Open Biosystems; label: 3'-fluorescein", "procedure": "A further dose response assay was performed on select compounds of the invention as described below. A sub-saturating concentration of MEX-5 or POS-1 (120 nM) was equilibrated with limiting fluorescein labeled RNA (2-3 nM, TCR2 RNA or MEX-3 UTR fragment RNA respectively) in the presence of varying concentrations of compound. Following equilibration, the reactions were loaded onto a 5% slab polyacrylamide gel and subjected to electrophoresis for about 1 hour to separate protein-RNA complex from free RNA. The gel was scanned on a FUJI FLA-5000 imager, and the fraction of bound RNA determined by dividing the intensity of the bound RNA by the intensity of the bound RNA plus the free RNA. The fraction of […] was plotted as a function of compound concentration and fit to a sigmoidal dose response function in order to determine the IC₅₀, the concentration that gives half maximal inhibition."}
{"binder": "UUUCUUUAUAACUUGUUACAAUUUUUGAAA (ssRNA)", "note": "[TCR2]", "values": [{"measurement": "binding result", "value": "binds"}]}
